Here are results for one molecule from PMC11920795.

For the series, the target named is Pol epsilon WT (holoenzyme) (Saccharomyces cerevisiae, UniProt P21951;P24482;P27344;Q04603 1-2222;1-689;1-201;1-196). The experiment in a line: EMSA. On the technique in general: In EMSA bound probe runs differently from free probe, usually more slowly.
Sequence of Pol epsilon WT (holoenzyme) (P21951 whole entry, chain 1 of 4): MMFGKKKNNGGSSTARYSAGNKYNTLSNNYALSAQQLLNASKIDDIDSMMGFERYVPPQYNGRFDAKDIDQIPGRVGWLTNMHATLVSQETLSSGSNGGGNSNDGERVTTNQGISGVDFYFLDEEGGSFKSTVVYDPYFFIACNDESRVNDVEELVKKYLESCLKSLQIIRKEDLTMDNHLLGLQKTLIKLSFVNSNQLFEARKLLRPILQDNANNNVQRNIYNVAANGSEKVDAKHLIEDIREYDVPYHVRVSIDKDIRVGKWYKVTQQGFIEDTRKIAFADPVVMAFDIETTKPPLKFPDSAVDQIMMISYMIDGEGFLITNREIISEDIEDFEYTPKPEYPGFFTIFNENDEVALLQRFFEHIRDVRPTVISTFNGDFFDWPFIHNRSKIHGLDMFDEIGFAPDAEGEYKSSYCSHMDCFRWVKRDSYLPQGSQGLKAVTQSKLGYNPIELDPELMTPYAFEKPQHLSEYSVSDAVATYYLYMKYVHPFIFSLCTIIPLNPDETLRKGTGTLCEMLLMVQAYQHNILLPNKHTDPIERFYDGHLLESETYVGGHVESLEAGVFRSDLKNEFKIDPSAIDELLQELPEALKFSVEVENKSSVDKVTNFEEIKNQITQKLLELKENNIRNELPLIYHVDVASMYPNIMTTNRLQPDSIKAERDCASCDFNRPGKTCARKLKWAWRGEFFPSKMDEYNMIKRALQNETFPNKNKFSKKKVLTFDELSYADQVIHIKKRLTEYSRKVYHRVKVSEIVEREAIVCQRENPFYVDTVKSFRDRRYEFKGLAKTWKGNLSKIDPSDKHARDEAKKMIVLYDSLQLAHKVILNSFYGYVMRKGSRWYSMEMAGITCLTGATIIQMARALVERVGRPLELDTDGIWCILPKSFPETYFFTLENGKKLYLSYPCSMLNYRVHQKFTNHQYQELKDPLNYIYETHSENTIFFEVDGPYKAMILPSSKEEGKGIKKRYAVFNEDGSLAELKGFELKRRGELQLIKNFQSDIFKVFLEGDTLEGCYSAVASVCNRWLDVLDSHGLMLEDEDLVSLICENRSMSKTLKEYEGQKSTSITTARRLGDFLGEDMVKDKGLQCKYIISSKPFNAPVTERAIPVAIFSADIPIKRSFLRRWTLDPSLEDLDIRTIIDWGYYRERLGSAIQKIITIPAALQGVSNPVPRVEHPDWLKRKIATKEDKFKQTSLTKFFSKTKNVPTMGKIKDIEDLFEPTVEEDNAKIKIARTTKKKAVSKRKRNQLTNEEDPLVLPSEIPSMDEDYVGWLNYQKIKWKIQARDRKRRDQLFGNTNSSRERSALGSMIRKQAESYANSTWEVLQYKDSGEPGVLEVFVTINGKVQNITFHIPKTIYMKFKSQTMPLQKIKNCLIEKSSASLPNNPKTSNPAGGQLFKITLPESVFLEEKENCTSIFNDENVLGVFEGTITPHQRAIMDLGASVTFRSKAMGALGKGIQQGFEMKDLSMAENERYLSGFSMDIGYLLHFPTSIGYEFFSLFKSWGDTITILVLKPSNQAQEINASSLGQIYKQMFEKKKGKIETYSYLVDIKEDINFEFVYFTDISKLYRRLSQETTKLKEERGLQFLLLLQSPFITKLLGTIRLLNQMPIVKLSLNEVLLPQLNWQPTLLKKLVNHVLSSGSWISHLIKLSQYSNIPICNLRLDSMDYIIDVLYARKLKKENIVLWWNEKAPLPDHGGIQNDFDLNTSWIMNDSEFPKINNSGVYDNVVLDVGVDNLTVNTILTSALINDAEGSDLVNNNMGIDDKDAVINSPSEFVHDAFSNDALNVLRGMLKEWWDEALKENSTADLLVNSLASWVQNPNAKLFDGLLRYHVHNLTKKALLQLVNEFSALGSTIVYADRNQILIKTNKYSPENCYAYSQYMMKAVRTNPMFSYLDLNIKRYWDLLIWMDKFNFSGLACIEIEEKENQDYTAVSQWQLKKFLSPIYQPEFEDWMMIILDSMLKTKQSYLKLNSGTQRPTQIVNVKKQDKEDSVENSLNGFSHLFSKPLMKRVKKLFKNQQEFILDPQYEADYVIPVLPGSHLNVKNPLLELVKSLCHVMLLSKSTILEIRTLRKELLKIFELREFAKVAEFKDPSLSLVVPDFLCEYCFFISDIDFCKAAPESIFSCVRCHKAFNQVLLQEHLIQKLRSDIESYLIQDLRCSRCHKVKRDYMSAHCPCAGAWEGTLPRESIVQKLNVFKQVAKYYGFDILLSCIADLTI
Sequence of Pol epsilon WT (holoenzyme) (P24482 whole entry, chain 2 of 4): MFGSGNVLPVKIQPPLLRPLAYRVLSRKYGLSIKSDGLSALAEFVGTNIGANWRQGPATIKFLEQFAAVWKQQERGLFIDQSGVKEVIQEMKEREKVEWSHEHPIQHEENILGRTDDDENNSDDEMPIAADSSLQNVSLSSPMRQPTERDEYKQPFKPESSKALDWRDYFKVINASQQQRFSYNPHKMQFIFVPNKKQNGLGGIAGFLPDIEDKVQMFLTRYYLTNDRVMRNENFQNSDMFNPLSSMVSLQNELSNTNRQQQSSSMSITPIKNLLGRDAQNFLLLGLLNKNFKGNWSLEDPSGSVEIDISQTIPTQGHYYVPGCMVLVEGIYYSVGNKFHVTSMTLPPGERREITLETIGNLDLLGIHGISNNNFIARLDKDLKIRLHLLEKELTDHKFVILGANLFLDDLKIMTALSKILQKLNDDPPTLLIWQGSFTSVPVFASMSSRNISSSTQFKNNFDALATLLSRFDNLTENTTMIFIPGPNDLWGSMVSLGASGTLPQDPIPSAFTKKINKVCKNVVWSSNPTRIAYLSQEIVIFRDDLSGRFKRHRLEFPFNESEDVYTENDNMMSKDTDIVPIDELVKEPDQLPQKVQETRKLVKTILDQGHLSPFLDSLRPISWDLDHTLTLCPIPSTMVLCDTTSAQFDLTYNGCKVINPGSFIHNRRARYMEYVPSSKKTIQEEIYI
Sequence of Pol epsilon WT (holoenzyme) (P27344 whole entry, chain 3 of 4): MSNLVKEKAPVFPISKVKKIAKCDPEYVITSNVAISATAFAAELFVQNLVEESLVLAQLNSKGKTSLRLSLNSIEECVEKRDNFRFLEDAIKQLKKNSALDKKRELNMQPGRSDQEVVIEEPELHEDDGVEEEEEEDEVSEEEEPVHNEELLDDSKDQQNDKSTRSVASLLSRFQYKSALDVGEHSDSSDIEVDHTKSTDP
Sequence of Pol epsilon WT (holoenzyme) (Q04603 whole entry, chain 4 of 4): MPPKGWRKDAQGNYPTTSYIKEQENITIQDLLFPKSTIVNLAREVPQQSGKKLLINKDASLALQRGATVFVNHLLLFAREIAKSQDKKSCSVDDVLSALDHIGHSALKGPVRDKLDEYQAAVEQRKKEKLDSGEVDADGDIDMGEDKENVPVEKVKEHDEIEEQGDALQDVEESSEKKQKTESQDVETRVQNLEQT

B1: P50/T80-1 (mixed)
DNA 1: TGGAACTTTGTACGTCCAAAATTGAATGACTTGGCCAACTACACTAAGTT
DNA 2: GGATTACGAAACGAAGCACATTAGCCCTGGAACTTAGTGTAGTTGGCCAAGTCATTCAATTTTGGACGTACAAAGTTCCA
In the case of B1, the binding result is listed as “binds”.
